Measurements taken from the supplement of paper PMC9732359.
± gives the uncertainty stated by the source.

Test: protein stability index of a GFP-peptide fusion (yeast GPS) (PSI 1-4); higher = more stable; sorted into four equal gates, so the index is relative within each strain
Summary of the method: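 Sequencing reads from sorted gates were used to score each peptide. The library consisted of tiled 17-residue yeast protein peptides fused downstream of GFP on a Cherry-expressing plasmid, pooled and carried in yeast. Mid-log cultures in leucine-free medium were split into four equal gates by GFP/Cherry ratio, and each gate's plasmids were PCR-amplified and Illumina-sequenced. The protein stability index adds up, over all gates, the read frequency multiplied by the gate number.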

Row | Sequence | protein stability index (doa10∆) | protein stability index (pdr5∆) | protein stability index (san1∆) | protein stability index (ubr1∆)
1 | TLVHTRVKIANTSAATV [SSN2] | 2.35 ± 0.056 | 2.31 ± 0.046 | 2.32 ± 0.044 | 2.57 ± 0.035
2 | DTVEEKKEEKLNIGKNF [SIR4] | 2.42 ± 0.16 | 2.71 ± 0.25 | 3.34 ± 0.2 | 2.42 ± 0.13
3 | KEDTVSWFKQKYDADVL [RPL11A] | 1.5 ± 0.069 | 1.43 ± 0.055 | 1.57 ± 0.1 | 1.53 ± 0.06
4 | KIMNVTTDSLTKVLQAD [YMR129W/POM152] | 3.25 ± 0.068 | 3.05 ± 0.068 | 3.12 ± 0.04 | 3.23 ± 0.064
5 | FSYQEVEFKLPKELVPS [CDC53] | 2.13 ± 0.056 | 2.16 ± 0.045 | 2.07 ± 0.076 | 1.91 ± 0.047
6 | MREITETIAEAKKKVLD [RPO21] | 3.5 ± 0.13 | 3.42 ± 0.09 | 3.42 ± 0.037 | 3.24 ± 0.091
7 | TGGLFGAKPAGSTGGLG [YGL172W/NUP49] | 3.39 ± 0.13 | 3.42 ± 0.24 | 3.23 ± 0.1 | 3.54 ± 0.07
8 | SIESKLEEHKNHLDELQ [SMC1] | 2.99 ± 0.093 | 2.86 ± 0.13 | 2.92 ± 0.069 | 3 ± 0.076
9 | NGAFQNSSNLSYNNTGI [RRP4] | 2.58 ± 0.069 | 2.85 ± 0.053 | 2.98 ± 0.045 | 2.84 ± 0.055
10 | TRNEQTTIQTEKVRPTP [MCD1] | 2.82 ± 0.04 | 2.99 ± 0.046 | 2.88 ± 0.036 | 3 ± 0.031
11 | LTIFDSVDESARIKDAF [YJL039C/NUP192] | 3.01 ± 0.11 | 3.07 ± 0.094 | 3.19 ± 0.051 | 3.02 ± 0.093
12 | GMIYNKLFVSKEHAPYT [FAS2] | 3.12 ± 0.091 | 2.2 ± 0.092 | 2.24 ± 0.17 | 2.41 ± 0.1
13 | ASSAVMNRRKIAMPKRR [YLR335W/NUP2] | 1.19 ± 0.074 | 1.3 ± 0.071 | 1.23 ± 0.2 | 1.16 ± 0.11
14 | ADLERFFLSIYFFYASR [YJL039C/NUP192] | 1.68 ± 0.073 | 1.12 ± 0.13 | 1.22 ± 0.12 | 1.55 ± 0.072
15 | TALDAEGAARGTSVYLV [DIS3] | 2.24 ± 0.13 | 1.58 ± 0.082 | 2.47 ± 0.12 | 2.28 ± 0.096
16 | SESVGAFLSFLAYRNYW [YJL039C/NUP192] | 1.69 ± 0.073 | 1.97 ± 0.11 | 1.72 ± 0.12 | 1.84 ± 0.084
17 | TTILSFSSPAALMKTLI [NUT1] | 1.65 ± 0.047 | 1.75 ± 0.05 | 2.09 ± 0.1 | 1.78 ± 0.054
18 | MDIAERIAVLHQKTKTL [YGL172W/NUP49] | 2.14 ± 0.076 | 1.67 ± 0.058 | 1.81 ± 0.11 | 1.51 ± 0.067
19 | LPVKHPELFESLGIAQP [RPT6] | 2.65 ± 0.074 | 3.01 ± 0.039 | 2.55 ± 0.077 | 2.73 ± 0.054
20 | RENNFRVASDTVHEMEE [SMC4] | – | 3.36 ± 0.28 | 3.19 ± 0.13 | 2.95 ± 0.27
21 | AISQSLRDESLTVDNLS [PRE5] | 2.96 ± 0.093 | 3.15 ± 0.089 | 3.33 ± 0.078 | 3.32 ± 0.06
22 | SAAKASQSRSAKAGLTF [HTA1] | 3.06 ± 0.081 | 2.96 ± 0.084 | 2.98 ± 0.042 | 3.05 ± 0.034
23 | PEKEASSATIVLCLTRS [YCG1] | 2.03 ± 0.06 | 2.5 ± 0.061 | 2.1 ± 0.056 | 2.24 ± 0.046
24 | DDRVDKKFVSQIQKNVD [POP3] | 3.22 ± 0.073 | 3.44 ± 0.12 | 3.29 ± 0.064 | 3.44 ± 0.051
25 | KFILSGFIFTSMILEAI [RRI2] | 1.58 ± 0.06 | 1.2 ± 0.035 | 1.17 ± 0.11 | 1.11 ± 0.048
26 | AEWSLVRIYSGLLKRGD [SNU114] | 2.95 ± 0.093 | 3.27 ± 0.1 | 3.26 ± 0.079 | 3.29 ± 0.12
